This note sets out measurements from US20250188184A1.

This experiment concerns the target CD3 (target of the Pool 1 CD3.23 screen). The experiment can be described thus: Octet, crude lysate. (BLI is a label-free optical method that tracks binding on a fibre tip over time.)

Sequence of CD3 (target of the Pool 1 CD3.23 screen) (P07766 23-126): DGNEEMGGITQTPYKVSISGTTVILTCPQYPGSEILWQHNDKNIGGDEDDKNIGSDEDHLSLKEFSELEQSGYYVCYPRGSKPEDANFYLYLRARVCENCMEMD

B1: CD3.109 (AC3438) (bispecific antibody, V domains shown)
VH: EVQLLESGGGIVQPGGSLKLSCAASGFTFNTYAMNWVRQAPGKGLEWVARIRSKYNNYATYYADSVKDRFTISRDDSKNTVYLQMNNLKTEDTAVYYCVRHENFGNSYVSWFAHWGQGTLVTVSS
VL: ELVVTQEPSLTVSPGGTVTLTCRSSNGAVTSSNYANWVQQKPGQAPRGLIGGTNKRAPGTPARFSGSNLGGKAALTLSGVQPEDEAVYYCALWYPNLWVFGGGTKLTVL
A word on the Kd: it is the concentration at which binding is half-saturated. As for B1, the Kd turned out to be 8.3 nM.

B2: CD3.110 (AC3439) (bispecific antibody, V domains shown)
VH: EVQLLESGGGIVQPGGSLKLSCAASGFTFNTYAMNWVRQAPGKGLEWVARIRSKYNNYATYYADSVKDRFTISRDDSKNTVYLQMNNLKTEDTAVYYCVRHENFGNSYVSWFAHWGQGTLVTVSS
VL: ELVVTQEPSLTVSPGGTVTLTCRSSNGAVTSSNYANWVQQKPGQAPRGLIGGTNKRAPGTPARFSGSTLGGKAALTLSGVQPEDEAVYYCALWYPNLWVFGGGTKLTVL
As to B2, the Kd was found to be 8.9 nM.
